Measurements as given in publication PMC5605669 (2017).

B1: APOBEC3G, wild type [human] / itself (parent complex)
chain: MKPHFRNTVERMYRDTFSYNFYNRPILSRRNTVWLCYEVKTKGPSRPPLDAKIFRGQVYSELKYHPEMRFFHWFSKWRKLHRDQEYEVTWYISWSPCTKCTRDMATFLAEDPKVTLTIFVARLYYFWDPDYQEALRSLCQKRDGPRATMKIMNYDEFQHCWSKFVYSQRELFEPWNNLPKYYILLHIMLGEILRHSMDPPTFTFNFNNEPWVRGRHETYLCYEVERMHNDTWVLLNQRRGFLCNQAPHKHGFLEGRHAELCFLDVIPFWKLDLDQDYRVTCFTSWSPCFSCAQEMAKFISKNKHVSLCIFTARIYDDQGRCQEGLRTLAEAGAKISIMTYSEFKHCWDTFVDHQGCPFQPWDGLDEHSQDLSGRLRAILQNQEN

Variants of: B1
Assay: single-molecule ssDNA binding curves fit with two-step binding model (k2 from k slow); parent: 0.007; read off a plot

screen value [s⁻¹]	Variant
~0.0057	chain 1 R313A, chain 1 D316A, chain 1 D317A, chain 1 Q318A
~0.0066	chain 1 I314A, chain 1 Y315A
